B1: wild type p16-GFP [not stated] / CDK4 (Cyclin-dependent protein kinase), endogenous in 293T cells [human (endogenous in 293T)] (parent)
chain 1: MEPAAGSSMEPSADWLATAAARGRVEEVRALLEAGALPNAPNSYGRRPIQVMMMGSARVAELLLLHGAEPNCADPATLTRPVHDAAREGFLDTLVVLHRAGARLDVRDAWGRLPVDLAEELGHRDVARYLRAAAGGTRGSNHARIDAAEGPSDIPD
chain 2: MATSRYEPVAEIGVGAYGTVYKARDPHSGHFVALKSVRVPNGGGGGGGLPISTVREVALLRRLEAFEHPNVVRLMDVCATSRTDREIKVTLVFEHVDQDLRTYLDKAPPPGLPAETIKDLMRQFLRGLDFLHANCIVHRDLKPENILVTSGGTVKLADFGLARIYSYQMALTPVVVTLWYRAPEVLLQSTYATPVDMWSVGCIFAEMFRRKPLFCGNSEADQLGKIFDLIGLPPEDDWPRDVSLPRGAFPPRGPRPVQSVVPEMEESGAQLLLEMLTFNPHKRISAFRALQHSYLHKDEGNPE

The assay covers variants of B1. In words: co-immunoprecipitation (anti-GFP IP, anti-CDK4 immunoblot, photodensitometry). The following applies: with CDK4 (Cyclin-dependent protein kinase), scale: relative intensity. On the technique in general: In western blotting, separated proteins are transferred to a membrane and probed.
Setting [1] is: 1 mM H2O2 for 24 h, read off a plot.

As for chain 1 S140A, the response is 0.92 under setting [1] and 0.85 (no H2O2, read off a plot).

As to chain 1 S152A, the response runs as follows: under setting [1], 1.7; (no H2O2, read off a plot) 1.1.

For the variant chain 1 S8A, the response is 1.4 under setting [1] and 0.92 (no H2O2, read off a plot).

(Values after publication PMC5264599.)
